# Source: paper PMC4191427, “Molecular mechanisms of two-component system RhpRS regulating type III secretion system in Pseudomonas syringae” (Nucleic Acids Research, 2014)
# Positions count from the first letter of the chain named.
# Assays:
# [1] = tested on: T1, RhpRpsph (Pseudomonas syringae pv. phaseolicola), ORF:976030cf; test: EMSA; settings: 10 mM Tris-HCl pH 7.4, 50 mM KCl, 5 mM MgCl2, 10% glycerol, 3 ug/ml sheared salmon sperm DNA, room temperature
# T1 sequence: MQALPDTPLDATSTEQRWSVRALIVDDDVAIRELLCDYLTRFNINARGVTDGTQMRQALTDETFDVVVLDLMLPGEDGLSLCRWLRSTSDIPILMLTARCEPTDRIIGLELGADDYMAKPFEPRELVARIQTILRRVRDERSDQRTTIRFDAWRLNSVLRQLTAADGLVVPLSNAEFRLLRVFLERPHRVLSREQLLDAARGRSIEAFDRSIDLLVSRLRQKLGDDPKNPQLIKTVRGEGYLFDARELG
# [2] = target: T2, RhpR (Pseudomonas syringae, UniProt A0ABY1U8E6); test: […] phosphorylation, autoradiography; format: biochemical; settings: phosphodonor; covalent phosphorylation (putative site Asp70); labelled compound; 37 °C, 30 min
# T2 construct: gene virG; full-length, N-terminal His6 tag (pMCSG19, MBP cut off in vivo), E. coli BL21 star (DE3)
# [3] = tested on: RhpR (Pseudomonas syringae pv. tomato DC3000?); test: EMSA; settings: 10 mM Tris-HCl pH 7.4, 50 mM KCl, 5 mM MgCl2, 10% glycerol, 3 ug/ml sheared salmon sperm DNA, room temperature
# [4] = tested on: T3, RhpR (Pseudomonas syringae pv. tomato DC3000?), ORF:d96f1ca2; test: EMSA; settings: 10 mM Tris-HCl pH 7.4, 50 mM KCl, 5 mM MgCl2, 10% glycerol, 3 ug/ml sheared salmon sperm DNA, room temperature
# T3 sequence: T1 sequence with D6E, T7N, P8T, E15D, T53S
compound,measurement,setting,value
TACAAGGGGTAGGGCTGTGACTGTCAGAAAGGTCCTATGCCCCGACACCTGCACGGTATAGAACACGCCAAACATCACGGCCATACGCCACCATCCGCTCTCCCGAATGTTCAGCAAAAGTACAGATACATCCTGCTACAACAATCCTTGCGCAGAAACATTTGAGCGACTGGGCACTGCGTTCAGCGCCACTGCACCTGCGGATGATTCCGAGGAGGCAACATGTTCTTAAGGTATGGGGTATTGATCGCATCACTTGCGATAGCGTCA (double strand) [PSPPH1086],binding,[1],binds
CC(=O)OP(=O)(O)O [acetyl phosphate],"32P phosphorylation, autoradiography",[2],The phosphorylated RhpR was readily detected
ATATTACCGCGCAAACCATCGACCAGGATTTTGCCCGCAACGGCAAGATTCACCGCGCCTGGAAAATCATGGCGCGTGCCTGATACGGTGTGTGATGAGCTTGCCTGTAACAGTTTTGTACAGGTTTGCTCATCGCTCCCTATGAAAATTACTGGCGAATAGCTATAACAGAAGTCATAGCCAGCTTGACGCTTCAGCATGTTGGCGTCATGAGTTTCTG (double strand) [rlmL],binding,[1],binds
rhpR promoter EMSA probe,binding signal (fold affinity vs unphosphorylated RhpR),[3],8
same,binding signal,[3]; scale: fold affinity vs unphosphorylated RhpR,8
GGGAACAGTTTGCGTTTTTCAGCCAGCCTCACTCATTAGCTGGATAAGCAGACAGGCGTTCTTTCACTTGATTCCGGTACAAGTTCTCATAACGATTGAAAGCCTGCTGCATCGATTCATCTATCCATGTATAAATGCTGTTACACATTGGCCCATCTCTGGAGACTCAGCGCATGCGTTACGCGCTCGATCATAAGGCCCAAACCCATCAACGTATCGTCAAGGAAGCGTCCATGCGCTTTCGTCGCGATGGCATTGGTGCTACGGGCTTACAACCTT (double strand) [PSPPH3654],binding,[1],binds
TTCGATACTTAGCGGATCAGGCATTATCGCATCGCCGCAAAAAATAATCCTGCCGCCGGGAGGAGAGCACACGGTTAGATTGCGCTCGTTGTCGAGTCCAAATAAAGAGTTGTTATATCGTGTATATGTCGAGACTGTAGCTGCGAATACGGATGAAGATCATGTGGTTACAGAGGGGGGTGGCAGCGTTGGTATTAGTCTAACATGGGGG (double strand) [PSPPH0775],binding,[1],no binding
CGCCTGGCGAATGTCTTATGGCAGCTTATTCGCAGCAGCAACTCATAGGCATCGGGGGGCTATCGGTCGATCCGTATATCAAAACTGATACCGCAAGGCTAAGGCGTGTGTACGTAACACCTACTGTAAGGAGGCAACATGTAGGTCAGGCGCTGGTAAAAGCATTGATTGCGCAGGCCGCGCTTCGTTTTCAGTGCGTGCGTCTTTCCACTGACACCTCTGAAGGCGATGCGTTTTACCTGCGTTGCGG (double strand) [PSPPH4977],binding,[1],binds
GCAGGAACCCCTCTCGTTATCGGGTTGTCGACAACAGACTGGCTGTTAAAACCTGTTCAGAGTGTGAACAGAGCCTGGACACCTGAATTTTCATTACGAGAGGTTGCC (double strand) [PSPTO_1489 promoter],binding,[4],no binding
